This is an account of results in publication PMC11178898, “A clade of receptor-like cytoplasmic kinases and 14-3-3 proteins coordinate inositol hexaphosphate accumulation” (Nature Communications, 2024).

B1: GRF4, Split-LUC fusion [Arabidopsis thaliana] / PI-PLC2, Split-LUC fusion [Arabidopsis thaliana] (parent)
chain 1: MAAPPASSSAREEFVYLAKLAEQAERYEEMVEFMEKVAEAVDKDELTVEERNLLSVAYKNVIGARRASWRIISSIEQKEESRGNDDHVTTIRDYRSKIESELSKICDGILKLLDTRLVPASANGDSKVFYLKMKGDYHRYLAEFKTGQERKDAAEHTLTAYKAAQDIANAELAPTHPIRLGLALNFSVFYYEILNSPDRACNLAKQAFDEAIAELDTLGEESYKDSTLIMQLLRDNLTLWTSDMQDESPEEIKEAAAPKPAEEQKEI
chain 2: MSKQTYKVCFCFRRRFRYTASEAPREIKTIFEKYSENGVMTVDHLHRFLIDVQKQDKATREDAQSIINSASSLLHRNGLHLDAFFKYLFGDNNPPLALHKVHHDMDAPISHYFIFTGHNSYLTGNQLSSDCSEVPIIDALKKGVRVIELDIWPNSNKDDIDVLHGMTLTTPVGLIKCLKAIRAHAFDVSDYPVVVTLEDHLTPDLQSKVAEMVTEIFGEILFTPPVGESLKEFPSPNSLKRRIIISTKPPKEYKEGKDVEVVQKGKDLGDEEVWGREVPSFIQRNKSEAKDDLDGNDDDDDDDDEDKSKINAPPQYKHLIAIHAGKPKGGITECLKVDPDKVRRLSLSEEQLEKAAEKYAKQIVRFTQHNLLRIYPKGTRVTSSNYNPLVGWSHGAQMVAFNMQGYGRSLWLMQGMFRANGGCGYIKKPDLLLKSGSDSDIFDPKATLPVKTTLRVTVYMGEGWYFDFRHTHFDQYSPPDFYTRVGIAGVPGDTVMKKTKTLEDNWIPAWDEVFEFPLTVPELALLRLEVHEYDMSEKDDFGGQTCLPVWELSEGIRAFPLHSRKGEKYKSVKLLVKVEFV

One assay covers variants of B1. The assay is described as follows: Split-LUC. The note with it: with PI-PLC2, Split-LUC fusion [Arabidopsis thaliana]; P3: nluc-GRF4 S242A, cluc-PI-PLC2, 35S::IPCK1-flag co-infiltrated (1:1:2); Total cps 91336, Areas 49.23; parent value is P1, which the printed layout grid …; parent: 1.67e+03.
In the case of chain 1 S242A, the response (cps (average)) turned out to be 1860.

The same assay, now with this note: with PI-PLC2, Split-LUC fusion [Arabidopsis thaliana]; P4: nluc-GRF4 S242D, cluc-PI-PLC2, 35S::IPCK1-flag co-infiltrated (1:1:2); Total cps 150882, Areas 56.84; parent value is P1, which the printed layout grid …; parent: 1.67e+03.
chain 1 S242D: the response (cps (average)) is 2650.
